Data on four molecules can be found in patent US20230212319A1, “NOVEL ANTIGEN BINDING DOMAINS AND SYNTHETIC ANTIGEN RECEPTORS INCORPORATING THE SAME” (University of Southern California, priority 2020, published 2023).

Format in all cases: cell-based
For one test, the system named is RAJI cells. In words: JNG assay, co-culture with RAJI cells. The settings on record: JNG cells expressing construct, co-culture with Raji. The gist of the method: (§1)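 Jurkat NFAT-GFP (JNG) cells stably transduced with SARs by lentivirus, with drug selection where the construct carried a resistance gene, then co-cultured with target cells at E:T ~1:2 for ~4–18 h. % GFP-positive cells measured by FACS against parental JNG; +/- to 5+ correspond to ~5–50% GFP-positive.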

The subject of a further test is RS;411. Briefly: JNG assay, co-culture with RS;411 cells. The settings on record: co-culture with RS411. As for the experimental part: Cellular supernatant is collected and assayed for the induction of cytokines (e.g., IL2).
JNG (Jurkat cells expressing EGFP under an NFAT promoter) were infected with lentiviral vectors encoding different single chain and multi-chain SARs by spinfection in the presence of 8 µg/ml of Polybrene® (Sigma, Catalog no. H9268). The Jurkat-NFAT-GFP cells are engineered in such a way that the IL-2 promoter, which carries NFAT binding sites, is cloned upstream of the GFP gene. These cells have been used to study signaling via TCR and CAR. The different SARs were stably expressed in Jurkat NFAT-GFP cells by lentiviral mediated gene transfer, followed by selection with puromycin or blasticidin. No drug selection was used in case the construct lacked an antibiotic resistance gene. The SAR-expressing Jurkat-NFAT-GFP cells were cocultured with the target cells at E:T ratio of approximately 1:2 for approximately 4 hours to 18 hours. When the interaction between SIRs and their target antigen results in activation of the NFAT pathway, GFP expression is induced. […] GFP expression was monitored by FACS analysis. The Jurkat-NFAT-GFP (parental) cells were used as control. The structure of different constructs can be determined based on their names. […] The sequence of the other constructs in the table can be similarly determined from their names and by referring to the different Tables of this disclosure that provide the names and SEQ ID NO of the different modules. Alternatively, the composition and modular architecture of the different SAR constructs can be determined from their sequences by bioinformatics tools, including using nucleic acid and amino acids homology searches. A SAR is considered positive in the assay in case the SAR expressing Jurkat-NFAT-GFP cells show greater % GFP positive cells when cultured with the target cell line as compared to parental Jurkat-NFAT-GFP cells. […] In general, the number +/-, +, 2+, 3+, 4+, 5+ refer to approximately 5%, 10%, 20%, 30%, 40% and 50% GFP positive cells. The % of GFP induction in the above assay is dependent not only the relative strength of the SAR but also, among other factors, on the relative level of expression of the SAR in the JNG cells and the relative level of expression of the target antigen in the target cell line. To control for the difference in gene transduction efficiency of the different SAR constructs, the experiment was conducted with JNG cells transduced with SAR constructs co-expressing a drug resistance gene (e.g., puromycin or PAC) followed by drug selection to generate a stable population of SAR-expressing cells. It is to be noted that the drug resistance gene (e.g., PAC) in the SAR constructs is optional and in vivo studies were conducted with SAR constructs lacking the PAC gene.

A further test relates to L363 cells. Briefly: JNG assay, co-culture with L363 cells. The settings on record: co-culture with L363. The gist of the method: as §1

B1: 22141 (protein)
chain: MALPVTALLLPLALLLHAARPACEVQLLESGGGLIQPGGSLRLSCAASGFTFSSHAMTWVRQAPGKGLEWVSAISGSGDYTHYADSVKGRFTISRDNSKNTVYLQMNSLRAEDSAVYYCAKDEDGGSLLGHRGQGTLVTVSSGTGGGGSGGGGSGGGGSEFDIQMTQSPSSLSASVGDRVTITCKASDHINNWLAWYQQKPGQAPKLLIYGATTLETGVPSRFSGSGSGTDYTLTISSLQPEDFATYYCQQSWNTPWTFGQGTKLEIKRLEGQPKANPTVTLFPPSSEELQANKATLVCLISDFYPGAVTVAWKADGSPVKAGVETTKPSKQSNNKYAASSYLSLTPEQWKSHRSYSCQVTHEGSTVEKTVAPTECSPIKTDVITMDPKDNCSKDANDTLLLQLTNTSAYYMYLLLLLKSVVYFAIITCCLLRRTAFCCNGEKSRAKRSGSGATNFSLLKQAGDVEENPGPTSATMDWIWRILFLVGAATGAHSGPQVQLQESGGGLAQAGGSLRLSCAASGRTFSMGWFRQAPGKEREFVAAITYSGGSPYYASSVRGRFTISRDNAKNTVYLQMNSLKPEDTAVYYCAANPTYGSDWNAENWGQGTQVTVSSGSGGGGSGGGGSGGGGSFEQVQLQQPGAELVKPGASVKMSCKASGYAFSSYWINWMKQKPGQGLEWIGQIYPGDGDTNYNGKFKGRATLTADTSSSTAYMQLSSLTSEDSAVYFCARSITTVVGCAMDYWGQGTSVTVSSTRASTKGPSVFPLAPSSKSTSGGTAALGCLVKDYFPEPVTVSWNSGALTSGVHTFPAVLQSSGLYSLSSVVTVPSSSLGTQTYICNVNHKPSNTKVDKRVEPKSCEVKTDSTDHVKPKETENTKQPSKSCHKPKAIVHTEKVNMMSLTVLGLRMLFAKTVAVNFLLTAKLFFLRAKRSGSGVKQTLNFDLLKLAGDVESNPGPSRAHMTEYKPTVRLATRDDVPRAVRTLAAAFADYPATRHTVDPDRHIERVTELQELFLTRVGLDIGKVWVADDGAAVAVWTTPESVEAGAVFAEIGPRMAELSGSRLAAQQQMEGLLAPHRPKEPAWFLATVGVSPDHQGKGLGSAVVLPGVEAAERAGVPAFLETSAPRNLPFYERLGFTVTADVEVPEGPRTWCMTRKPGA
B1: the “NFAT-GFP ASSAY: Raji” value with RAJI cells is 4+ (refer to approximately 5%, 10%, 20%, 30%, 40% and 50% GFP positive cells). Further, the “NFAT-GFP ASSAY: RS411” value in the test with RS;411 is 4+ (refer to approximately 5%, 10%, 20%, 30%, 40% and 50% GFP positive cells).

B2: 22106 (protein)
chain: MALPVTALLLPLALLLHAARPDIQMTQSPSSLSASVGDRVTITCKASDHINNWLAWYQQKPGQAPKLLIYGATTLETGVPSRFSGSGSGTDYTLTISSLQPEDFATYYCQQSWNTPWTFGQGTKLEIKRLEDLKNVFPPEVAVFEPSKAEIAHTQKATLVCLATGFYPDHVELSWWVNGKEVHSGVCTDPQPLKEQPALNDSRYCLSSRLRVSATFWQNPRNHFRCQVQFYGLSENDEWTQDRAKPVTQIVSAEAWGRADCGITSASYHQGVLSATILYEILLGKATLYAVLVSALVLMAMVKRKDSRGRAKRSGSGATNFSLLKQAGDVEENPGPTSATMDWIWRILFLVGAATGAHSGPQVQLQESGGGLAQAGGSLRLSCAASGRTFSMGWFRQAPGKEREFVAAITYSGGSPYYASSVRGRFTISRDNAKNTVYLQMNSLKPEDTAVYYCAANPTYGSDWNAENWGQGTQVTVSSGSGGGGSGGGGSGGGGSFEQVQLQQPGAELVKPGASVKMSCKASGYAFSSYWINWMKQKPGQGLEWIGQIYPGDGDTNYNGKFKGRATLTADTSSSTAYMQLSSLTSEDSAVYFCARSITTVVGCAMDYWGQGTSVTVSSTRIQNPDPAVYQLRDSKSSDKSVCLFTDFDSQTNVSQSKDSDVYITDKCVLDMRSMDFKSNSAVAWSNKSDFACANAFNNSIIPEDTFFPSSDVPCDVKLVEKSFETDTNLNFQNLSVIGFRILLLKVAGFNLLMTLRLWSSRAKRSGSGVKQTLNFDLLKLAGDVESNPGPSRGHMTEYKPTVRLATRDDVPRAVRTLAAAFADYPATRHTVDPDRHIERVTELQELFLTRVGLDIGKVWVADDGAAVAVWTTPESVEAGAVFAEIGPRMAELSGSRLAAQQQMEGLLAPHRPKEPAWFLATVGVSPDHQGKGLGSAVVLPGVEAAERAGVPAFLETSAPRNLPFYERLGFTVTADVEVPEGPRTWCMTRKPGA
Consider B2, for which, in the test with RAJI cells, the “NFAT-GFP ASSAY: Raji” value is 5+ (refer to approximately 5%, 10%, 20%, 30%, 40% and 50% GFP positive cells). Also, in the test with RS;411, the “NFAT-GFP ASSAY: RS411” value was “+ (refer to approximately 5%, 10%, 20%, 30%, 40% and 50% GFP positive cells)”.

B3: 22012 (protein)
chain: MDWIWRILFLVGAATGAHSQLQLQESGPGLVKPSETLSLTCTVSGGSVSSSSYYWGWIRQPPGKRLELIGSIYYGGSTYFNPSLKTRVTISVDTSKNQFSLKLSSVTAADTAVYYCAGGDTYGPVGQWPSDYRGQGTLVTVSSLEDLKNVFPPEVAVFEPSEAEISHTQKATLVCLATGFYPDHVELSWWVNGKEVHSGVCTDPQPLKEQPALNDSRYCLSSRLRVSATFWQNPRNHFRCQVQFYGLSENDEWTQDRAKPVTQIVSAEAWGRADCGFTSESYQQGVLSATILYEILLGKATLYAVLVSALVLMAMVKRKDSRGRAKRSGSGATNFSLLKQAGDVEENPGPTSMDWIWRILFLVGAATGAHSFEVQLLESGGGLIQPGGSLRLSCAASGFTFSSHAMTWVRQAPGKGLEWVSAISGSGDYTHYADSVKGRFTISRDNSKNTVYLQMNSLRAEDSAVYYCAKDEDGGSLLGHRGQGTLVTVSSTRIQNPDPAVYQLRDSKSSDKSVCLFTDFDSQTNVSQSKDSDVYITDKCVLDMRSMDFKSNSAVAWSNKSDFACANAFNNSIIPEDTFFPSPESSCDVKLVEKSFETDTNLNFQNLSVIGFRILLLKVAGFNLLMTLRLWSSRAKRSGSGVKQTLNFDLLKLAGDVESNPGPSRGHMTEYKPTVRLATRDDVPRAVRTLAAAFADYPATRHTVDPDRHIERVTELQELFLTRVGLDIGKVWVADDGAAVAVWTTPESVEAGAVFAEIGPRMAELSGSRLAAQQQMEGLLAPHRPKEPAWFLATVGVSPDHQGKGLGSAVVLPGVEAAERAGVPAFLETSAPRNLPFYERLGFTVTADVEVPEGPRTWCMTRKPGA
For the molecule B3, the “NFAT-GFP ASSAY: L363” value with L363 cells was “+ (refer to approximately 5%, 10%, 20%, 30%, 40% and 50% GFP positive cells)”. For the same molecule, the “NFAT-GFP ASSAY: RS411” value in the test with RS;411 was “+/- (refer to approximately 5%, 10%, 20%, 30%, 40% and 50% GFP positive cells)”.

B4: 22143 (protein)
chain: MALPVTALLLPLALLLHAARPQVQLVESGGGLVQPGGSLRLSCAASGFTFTNHAMSWVRQAPGKGLELVSSISGNGRTTYYADSVKGRFTISRDISKNTLDLQMNSLRAEDTAVYYCAKDGGETLVDSRGQGTLVTVSSLEGGGGSGGGGSIEGGGGSGGGGSKVQLLESGGGLVQPGGSLRLSCAASGFIFSSYAMSWVRQAPGKGQEWVSGVSGTGVNTYYADSVKGRFTISRDNSKNTLYLQMNSLRAEDTAVYYCASGKGWDSGSWYEDYRGQGTLVTVSSGTGGGGSGGGGSGGGGSEFDIQMTQSPSSLSASVGDRVTITCKASDHINNWLAWYQQKPGQAPKLLIYGATTLETGVPSRFSGSGSGTDYTLTISSLQPEDFATYYCQQSWNTPWTFGQGTKLEIKRLEDLKNVFPPEVAVFEPSKAEIAHTQKATLVCLATGFYPDHVELSWWVNGKEVHSGVCTDPQPLKEQPALNDSRYCLSSRLRVSATFWQNPRNHFRCQVQFYGLSENDEWTQDRAKPVTQIVSAEAWGRADCGITSASYHQGVLSATILYEILLGKATLYAVLVSALVLMAMVKRKDSRGRAKRSGSGATNFSLLKQAGDVEENPGPTSATMDWIWRILFLVGAATGAHSGPQVQLQESGGGLAQAGGSLRLSCAASGRTFSMGWFRQAPGKEREFVAAITYSGGSPYYASSVRGRFTISRDNAKNTVYLQMNSLKPEDTAVYYCAANPTYGSDWNAENWGQGTQVTVSSGSGGGGSGGGGSGGGGSFEQVQLQQPGAELVKPGASVKMSCKASGYAFSSYWINWMKQKPGQGLEWIGQIYPGDGDTNYNGKFKGRATLTADTSSSTAYMQLSSLTSEDSAVYFCARSITTVVGCAMDYWGQGTSVTVSSTRIQNPDPAVYQLRDSKSSDKSVCLFTDFDSQTNVSQSKDSDVYITDKCVLDMRSMDFKSNSAVAWSNKSDFACANAFNNSIIPEDTFFPSSDVPCDVKLVEKSFETDTNLNFQNLSVIGFRILLLKVAGFNLLMTLRLWSSRAKRSGSGVKQTLNFDLLKLAGDVESNPGPSRGHMTEYKPTVRLATRDDVPRAVRTLAAAFADYPATRHTVDPDRHIERVTELQELFLTRVGLDIGKVWVADDGAAVAVWTTPESVEAGAVFAEIGPRMAELSGSRLAAQQQMEGLLAPHRPKEPAWFLATVGVSPDHQGKGLGSAVVLPGVEAAERAGVPAFLETSAPRNLPFYERLGFTVTADVEVPEGPRTWCMTRKPGA
B4: the “NFAT-GFP ASSAY: L363” value in the test with L363 cells was 2+ (refer to approximately 5%, 10%, 20%, 30%, 40% and 50% GFP positive cells). The “NFAT-GFP ASSAY: Raji” value in the test with RAJI cells is 2+ (refer to approximately 5%, 10%, 20%, 30%, 40% and 50% GFP positive cells). Also, in the test with RS;411, the “NFAT-GFP ASSAY: RS411” value is 2+ (refer to approximately 5%, 10%, 20%, 30%, 40% and 50% GFP positive cells).
